Assay in all cases: cell_activity
In series [1] the target is TcI42 (bacteriophage lambda) (UniProt P03034). Conditions: thermal derepression of GFP in E. coli, 32.4 to 45.7 C.
In series [2] the target is TcI38 (bacteriophage lambda) (UniProt P03034). Conditions: thermal derepression of GFP in E. coli, 32.4 to 40 C.
Series [3] deals with TcI (cI857, A67T) (bacteriophage lambda) (UniProt P03034). Conditions: thermal derepression of GFP in E. coli, 34.2 to 40 C; text gives >1,432.
The test system of series [4] is TlpA (Salmonella typhimurium). Conditions: thermal derepression of GFP in E. coli, 31.4 to 44.6 C.
The subject of series [5] is TlpA39 (Salmonella typhimurium). Conditions: thermal derepression of GFP in E. coli, 31.4 to 44.6 C.
The test system of series [6] is TlpA36 (Salmonella typhimurium). Conditions: thermal derepression of GFP in E. coli, 31.4 to 44.6 C.

Drawing on patent US20210277453, this text covers activity for two substances.

For the substance tandem pR/pL operator/promoter, the activity stood at 1690 fold in series [1], 1030 fold in series [2] and 1430 fold in series [3].

TlpA operator/promoter, 52 bp: the activity worked out at 355 fold in series [4], 1520 fold in series [5] and 370 fold in series [6].
